The values below come from the supplement of paper PMC12764529.

± gives the half width of the 95% confidence interval.

Data set [1] in a line: folding stability dG unfold from trypsin proteolysis; higher = more stable. The gist of the method: (§1)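 Designed mini-proteins (under 80 residues, no cysteine) in a PA-tagged cDNA display construct were digested with trypsin and chymotrypsin. Each protease was used at 11 concentrations (threefold dilutions) plus a no-protease condition, followed by sequencing. K50 was inferred by Bayesian fitting of sequencing counts, and unfolding free energy was derived against a sequence-predicted unfolded-state K50 and a shared folded-state K50, per protease or combined. Only designs with AlphaFold2 dimer inter-PAE above 15 were kept.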

A short description of data set [2]: folding stability dG unfold from chymotrypsin proteolysis; higher = more stable. The essentials:
as §1

Data set [3] in a line: folding stability dG unfold (combined trypsin and chymotrypsin); higher = more stable. The gist of the method: as §1

For “MTIVIDTPVPPEEAEALLRELAEELGYSPELMEVEERVFSEGEDGRPYVTLTVRLPGLGVTITLRLPPDAAS [r1_21_JUSTAS]”, the “folding stability dG unfold” value stood at 3.61 ± 0.11 kcal/mol in data set [1], 3.681 ± 0.02 kcal/mol in data set [2] and 3.66 ± 0.041 kcal/mol in data set [3].

For “MTPEERIEEIEAKARELLRELGLPPEVRLTVEAEVRPRPDGRLELRVRVTVEFPGPPGAIPPELLEALAEES [r1_98_TrMRF]”, the “folding stability dG unfold” value in data set [1] was found to be 2.7 ± 0.081 kcal/mol; in data set [2] it was 2.38 ± 0.086 kcal/mol; in data set [3], 2.53 ± 0.14 kcal/mol.

Turning to “MTPTFTVTELPPDLLRVEYTDPVTGKRATFTLPVSPVGDGVRLSAEVDAEGLPEEVAAAIRDAALAALAAAS [r1_403_JUSTAS]”, the “folding stability dG unfold” value in data set [1] is 1.48 ± 0.021 kcal/mol; in data set [2] it was 2.3 ± 0.023 kcal/mol; in data set [3], 2.06 ± 0.042 kcal/mol.

As for “MVELVEVTRENGLVTVTVANPIPGATLTVEVRDPEGKVLASSTSPSPTVTVTAEIPPDEDFSVTVTQTPPAS [r1_382_JUSTAS]”, the results for the “folding stability dG unfold” value in data set [1], in data set [2] and in data set [3] were 3.43 ± 0.14 kcal/mol, 3.99 ± 0.2 kcal/mol and over 6 kcal/mol, respectively.

“MYLVRIKIEYKTEDGEKVEKEITLLVEPSEEEAKEKAEELARKIAEELGLSEEEIKKIEVEVVKLGEELEES [r1_159_TrROS_Hall]”: the “folding stability dG unfold” value in data set [1] amounted to 4.05 ± 0.22 kcal/mol; in data set [2] it was 4.37 ± 0.12 kcal/mol; in data set [3], 4.29 ± 0.15 kcal/mol.

For the sequence “MYTIEVEVSTEPNPNTTTVTVRITSDDGTPVPEEVVKEAAEKIKKSGYPIDELEVKPLPDGSVEVTLKYSSS [r1_408_JUSTAS]”, the “folding stability dG unfold” value in data set [1] amounted to 3.31 ± 0.17 kcal/mol; in data set [2], 4.05 ± 0.13 kcal/mol; in data set [3], 3.76 ± 0.11 kcal/mol.

With “MYVVRAKFKIKGEDGSEFEAETVILVEETPEEAKEKVEEKAREIAEELGLSLENITEIEVEVLSLDEELLPS [r1_159_TrMRF]”, the figures for the “folding stability dG unfold” value in data set [1], in data set [2] and in data set [3] were 1.44 ± 0.1 kcal/mol, 2.16 ± 0.15 kcal/mol and 2.12 ± 0.27 kcal/mol, respectively.

For “NINPEFMEKIVNEIANRMNQQGWKIKKVDIEPYPNGMIDIKVNGREIEFPWPNGRWFRIKVEAKRVPPEQRS [r1_31_TrROS]”, the “folding stability dG unfold” value was determined as 1.93 ± 0.027 kcal/mol in data set [1], 2.87 ± 0.076 kcal/mol in data set [2] and 2.41 ± 0.076 kcal/mol in data set [3].

For “NPGKPLEIDIEVDIFEFPGGKFAIITFPIRLPGNGYWVQIEFWINPDGGLVMKIDVYDPGNGKPEEITIPIS [r1_261_TrROS]”, the “folding stability dG unfold” value is 3.27 ± 0.27 kcal/mol in data set [1], 5.04 ± 0.2 kcal/mol in data set [2] and 4.64 ± 0.2 kcal/mol in data set [3].

Take “NRYYRITIRNPDGMPIELFVRRSPNGEYMVRVKINMPNKKPKTIWFPFKSPEDILEEIRKHLPWDIEIEPWS [r1_137_TrROS]”: the “folding stability dG unfold” value in data set [1] was found to be 3.46 ± 0.089 kcal/mol; in data set [2], 3.28 ± 0.053 kcal/mol; in data set [3] it was 3.31 ± 0.087 kcal/mol.

For the sequence “PETVTLTVEIEIEVRGPDGKPLTPEQVEELAKALAEELAAELGLEVEVTVTVEPVGPDGKYRITVTVTIRPS [r1_231_TrROS_Hall]”, the entries for the “folding stability dG unfold” value in data set [1], in data set [2] and in data set [3] were 4.45 ± 0.34 kcal/mol, 5.69 ± 0.86 kcal/mol and over 6 kcal/mol, respectively.

For “PFPIYVKIERDGKPVREEPIPMDELQEMPVEEVIEYARELLRQFPGRKYKVEVYFPGGPREFEIKDPEDIKS [r1_477_TrROS]”, the “folding stability dG unfold” value in data set [1] worked out at 0.496 ± 0.071 kcal/mol; in data set [2], 1.58 ± 0.14 kcal/mol; in data set [3], 1.28 ± 0.16 kcal/mol.

As to “PISAEEAVDYAKHLAERLLKENPPGQEEVEIEFQSPNGWTVKIEIDPNNRKIDVEVYPRNGEPIAKAKIKVS [r1_370_TrROS]”, the “folding stability dG unfold” value in data set [1] came out at 0.108 ± 0.12 kcal/mol; in data set [2], 0.378 ± 0.33 kcal/mol; in data set [3] it was 0.205 ± 0.35 kcal/mol.

Regarding “PKIVEILDAKRTPDGSLVIKIKIEPPEPNVKIKVIVKTPNSFKVYEIDPTKTTLEITIPGNVTNPKIEVFGS [r1_428_TrMRF]”, the “folding stability dG unfold” value was 2.51 ± 0.17 kcal/mol in data set [1], 2.65 ± 0.14 kcal/mol in data set [2] and 2.52 ± 0.34 kcal/mol in data set [3].

As to “PKYVIKAVNPKVGEVKTIEVDDDPEKAIEALKALKKADPDIKFYISGVKSDELIEAAKEAGLEDLNFTEVES [r1_114_TrMRF]”, the results for the “folding stability dG unfold” value in data set [1], in data set [2] and in data set [3] were 3.2 ± 0.15 kcal/mol, 4.02 ± 0.27 kcal/mol and 4.02 ± 0.32 kcal/mol, respectively.

For “PLVLRLPDGAEAVRVEFFPERNTVVAFFRAPDRLLVVEVRFEPVGGGLLAPVRVRALPVPPTPEQLRLLAES [r1_154_TrMRF]”, the “folding stability dG unfold” value in data set [1] came out at 1.35 ± 0.098 kcal/mol; in data set [2], 2.58 ± 0.089 kcal/mol; in data set [3], 2.17 ± 0.093 kcal/mol.

For “PNFKIDIEIIKAEEVPPRPTDDGKPQPVRRIHIRIEVKGPPDQPPELANNIVEEIMAELQELGLPVHIHVWS [r1_305_TrROS]”, the entries for the “folding stability dG unfold” value in data set [1], in data set [2] and in data set [3] were 1.62 ± 0.054 kcal/mol, 1.91 ± 0.075 kcal/mol and 1.83 ± 0.21 kcal/mol, respectively.

In the case of “RVEVLENGEVIAVFPAEFLADIPPDDPLLLTLTLTLPDGYRVYVTFYNLPDGTVVAIARVEPVEVGPELAAS [r1_394_TrMRF]”, the figures for the “folding stability dG unfold” value in data set [1], in data set [2] and in data set [3] were 3.32 ± 0.14 kcal/mol, 4.46 ± 0.066 kcal/mol and 4.22 ± 0.12 kcal/mol, respectively.
